Sequences and labels used below:
B1: cyclic peptide SEQ ID NO: 327 (peptide)
peptide: YCEENYADPEQYQYFIYFK(COCH2)Y
modifications: thioether 2-19 (inferred)
B2: cyclic peptide SEQ ID NO: 340 (peptide)
peptide: YCEENYLKPEQYQYFIYFK(COCH2)Y
modifications: thioether 2-19; not fully specified; printed as Y-(C)-EENYLKPEQYQYFIYF-(K(acetyl))-Y
B3: cyclic peptide SEQ ID NO: 337 (peptide)
peptide: YCEKNYLDPEQYQYFIYFK(COCH2)Y
modifications: thioether 2-19; not fully specified; printed as Y-(C)-EKNYLDPEQYQYFIYF-(K(acetyl))-Y
B4: cyclic peptide SEQ ID NO: 336 (peptide)
peptide: YCKENYLDPEQYQYFIYFK(COCH2)Y
modifications: thioether 2-19; not fully specified; printed as Y-(C)-KENYLDPEQYQYFIYF-(K(acetyl))-Y
B5: cyclic peptide SEQ ID NO: 334 (peptide)
peptide: YCEENYLDPEQYQYFIYFK(COCH2)A
modifications: thioether 2-19
B6: cyclic peptide SEQ ID NO: 345 (peptide)
peptide: YCEENYLDPEQYQYFIKFK(COCH2)Y
modifications: thioether 2-19; not fully specified; printed as Y-(C)-EENYLDPEQYQYFIKF-(K(acetyl))-Y
B7: cyclic peptide SEQ ID NO: 333 (peptide)
peptide: YCEENYLDPEQYQYFIAFK(COCH2)Y
modifications: thioether 2-19
B8: cyclic peptide SEQ ID NO: 328 (peptide)
peptide: YCEENYLAPEQYQYFIYFK(COCH2)Y
modifications: thioether 2-19 (inferred)
B9: cyclic peptide SEQ ID NO: 350 (peptide)
peptide: YCEENMLDPEQYQYFIYFK(COCH2)Y
modifications: thioether 2-19
B10: cyclic peptide SEQ ID NO: 344 (peptide)
peptide: YCEENYLDPEQYQYFKYFK(COCH2)Y
modifications: thioether 2-19; not fully specified; printed as Y-(C)-EENYLDPEQYQYFKYF-(K(acetyl))-Y
B11: cyclic peptide SEQ ID NO: 343 (peptide)
peptide: YCEENYLDPEQYKYFIYFK(COCH2)Y
modifications: thioether 2-19; not fully specified; printed as Y-(C)-EENYLDPEQYKYFIYF-(K(acetyl))-Y
B12: cyclic peptide SEQ ID NO: 329 (peptide)
peptide: YCEENYLDAEQYQYFIYFK(COCH2)Y
modifications: thioether 2-19 (inferred)
B13: cyclic peptide SEQ ID NO: 331 (peptide)
peptide: YCEENYLDPEQYAYFIYFK(COCH2)Y
modifications: thioether 2-19
B14: cyclic peptide SEQ ID NO: 330 (peptide)
peptide: YCEENYLDPAQYQYFIYFK(COCH2)Y
modifications: thioether 2-19 (inferred)
B15: cyclic peptide SEQ ID NO: 352 (peptide)
peptide: YCEENYLMPEQYQYFIYFK(COCH2)Y
modifications: thioether 2-19
B16: cyclic peptide SEQ ID NO: 348 (peptide)
peptide: YCMENYLDPEQYQYFIYFK(COCH2)Y
modifications: thioether 2-19
B17: cyclic peptide SEQ ID NO: 353 (peptide)
peptide: YCEENYLDMEQYQYFIYFK(COCH2)Y
modifications: thioether 2-19
B18: cyclic peptide SEQ ID NO: 335 (peptide)
peptide: KCEENYLDPEQYQYFIYFK(COCH2)Y
modifications: thioether 2-19; not fully specified; printed as K-(C)-EENYLDPEQYQYFIYF-(K(acetyl))-Y
B19: cyclic peptide SEQ ID NO: 338 (peptide)
peptide: YCEENKLDPEQYQYFIYFK(COCH2)Y
modifications: thioether 2-19; not fully specified; printed as Y-(C)-EENKLDPEQYQYFIYF-(K(acetyl))-Y
B20: cyclic peptide SEQ ID NO: 347 (peptide)
peptide: MCEENYLDPEQYQYFIYFK(COCH2)Y
modifications: thioether 2-19
B21: cyclic peptide SEQ ID NO: 351 (peptide)
peptide: YCEENYMDPEQYQYFIYFK(COCH2)Y
modifications: thioether 2-19
B22: cyclic peptide SEQ ID NO: 342 (peptide)
peptide: YCEENYLDPKQYQYFIYFK(COCH2)Y
modifications: thioether 2-19; not fully specified; printed as Y-(C)-EENYLDPKQYQYFIYF-(K(acetyl))-Y
B23: cyclic peptide SEQ ID NO: 339 (peptide)
peptide: YCEENYKDPEQYQYFIYFK(COCH2)Y
modifications: thioether 2-19; not fully specified; printed as Y-(C)-EENYKDPEQYQYFIYF-(K(acetyl))-Y
B24: cyclic peptide SEQ ID NO: 341 (peptide)
peptide: YCEENYLDKEQYQYFIYFK(COCH2)Y
modifications: thioether 2-19; not fully specified; printed as Y-(C)-EENYLDKEQYQYFIYF-(K(acetyl))-Y
B25: cyclic peptide SEQ ID NO: 332 (peptide)
peptide: YCEENYLDPEQYQYFAYFK(COCH2)Y
modifications: thioether 2-19
B26: cyclic peptide SEQ ID NO: 346 (peptide)
peptide: YCEENYLDPEQYQYFIYFK(COCH2)K
modifications: thioether 2-19; not fully specified; printed as Y-(C)-EENYLDPEQYQYFIYF-(K(acetyl))-K
B27: cyclic peptide SEQ ID NO: 349 (peptide)
peptide: YCEMNYLDPEQYQYFIYFK(COCH2)Y
modifications: thioether 2-19

Bridge positions count the residues as written; N and C are the ends. Ends that are not written are not given here. COCH2 = acetyl group that carries the bridge

Results on 27 molecules are retold here after patent publication US20260008815A1, “CYCLIC PEPTIDE OR SALT THEREOF, AND USES THEREOF” (FUJIFILM Corporation, priority 2023, published 2026).

T1 sequence (P21802 22-377, change not shown): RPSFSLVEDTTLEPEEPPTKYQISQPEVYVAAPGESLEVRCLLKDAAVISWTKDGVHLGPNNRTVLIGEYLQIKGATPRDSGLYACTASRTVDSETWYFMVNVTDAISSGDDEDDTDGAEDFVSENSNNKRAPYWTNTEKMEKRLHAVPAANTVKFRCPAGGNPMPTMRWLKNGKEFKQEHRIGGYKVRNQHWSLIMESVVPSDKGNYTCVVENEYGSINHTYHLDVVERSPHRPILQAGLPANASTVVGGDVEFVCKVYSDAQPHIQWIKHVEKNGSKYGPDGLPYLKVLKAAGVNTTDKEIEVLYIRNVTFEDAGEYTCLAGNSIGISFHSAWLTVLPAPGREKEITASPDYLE

The assay has as its target T1, Recombinant Human FGFR2 alpha (IIIc) Fc Chimera Protein, CF (R&D systems, 712-FR-050) (human, UniProt P21802 22-377).
T1 construct: bought; not shown: Fc part of the chimera
In words: ELISA on plate-bound FGFR2-Fc. The method, boiled down: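 Plate-immobilized FGFR2 alpha (IIIc)-Fc (5 ng/well) incubated with peptide 3 h at room temperature, then anti-Myc antibody 2 h and chemiluminescent ELISA substrate. Signal corrected by subtracting FGFR-free wells; binding affinity scored into categories from the dose-response.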
As to B1, the “ELISA luminescence signal at 10 nmol/L peptide, relative to SEQ ID NO: 47 (=1)” value lay within 0.1 to 0.5 ratio.

Take B2: the “ELISA luminescence signal at 10 nmol/L peptide, relative to SEQ ID NO: 47 (=1)” value was in the range of 0.1 to 0.5 ratio.

B3: the “ELISA luminescence signal at 10 nmol/L peptide, relative to SEQ ID NO: 47 (=1)” value is ≥ 0.7 ratio.

As for B4, the “ELISA luminescence signal at 10 nmol/L peptide, relative to SEQ ID NO: 47 (=1)” value is ≥ 0.7 ratio.

With B5, the “ELISA luminescence signal at 10 nmol/L peptide, relative to SEQ ID NO: 47 (=1)” value was ≥ 0.7 ratio.

Regarding B6, the “ELISA luminescence signal at 10 nmol/L peptide, relative to SEQ ID NO: 47 (=1)” value was ≥ 0.7 ratio.

Regarding B7, the “ELISA luminescence signal at 10 nmol/L peptide, relative to SEQ ID NO: 47 (=1)” value was ≥ 0.7 ratio.

Take B8: the “ELISA luminescence signal at 10 nmol/L peptide, relative to SEQ ID NO: 47 (=1)” value is ≥ 0.7 ratio.

Regarding B9, the “ELISA luminescence signal at 10 nmol/L peptide, relative to SEQ ID NO: 47 (=1)” value was ≥ 0.7 ratio.

In the case of B10, the “ELISA luminescence signal at 10 nmol/L peptide, relative to SEQ ID NO: 47 (=1)” value was ≥ 0.7 ratio.

As for B11, the “ELISA luminescence signal at 10 nmol/L peptide, relative to SEQ ID NO: 47 (=1)” value is ≥ 0.7 ratio.

Take B12: the “ELISA luminescence signal at 10 nmol/L peptide, relative to SEQ ID NO: 47 (=1)” value was ≥ 0.7 ratio.

Consider B13, for which the “ELISA luminescence signal at 10 nmol/L peptide, relative to SEQ ID NO: 47 (=1)” value is ≥ 0.7 ratio.

Turning to B14, the “ELISA luminescence signal at 10 nmol/L peptide, relative to SEQ ID NO: 47 (=1)” value is ≥ 0.7 ratio.

B15: the “ELISA luminescence signal at 10 nmol/L peptide, relative to SEQ ID NO: 47 (=1)” value is ≥ 0.7 ratio.

For B16, the “ELISA luminescence signal at 10 nmol/L peptide, relative to SEQ ID NO: 47 (=1)” value was ≥ 0.7 ratio.

Take B17: the “ELISA luminescence signal at 10 nmol/L peptide, relative to SEQ ID NO: 47 (=1)” value is ≥ 0.7 ratio.

B18: the “ELISA luminescence signal at 10 nmol/L peptide, relative to SEQ ID NO: 47 (=1)” value is ≥ 0.7 ratio.

As to B19, the “ELISA luminescence signal at 10 nmol/L peptide, relative to SEQ ID NO: 47 (=1)” value was in the range of 0.1 to 0.5 ratio.

For B20, the “ELISA luminescence signal at 10 nmol/L peptide, relative to SEQ ID NO: 47 (=1)” value is ≥ 0.7 ratio.

For the molecule B21, the “ELISA luminescence signal at 10 nmol/L peptide, relative to SEQ ID NO: 47 (=1)” value was ≥ 0.7 ratio.

In the case of B22, the “ELISA luminescence signal at 10 nmol/L peptide, relative to SEQ ID NO: 47 (=1)” value was ≥ 0.7 ratio.

B23: the “ELISA luminescence signal at 10 nmol/L peptide, relative to SEQ ID NO: 47 (=1)” value was ≥ 0.7 ratio.

Consider B24, for which the “ELISA luminescence signal at 10 nmol/L peptide, relative to SEQ ID NO: 47 (=1)” value is ≥ 0.7 ratio.

Turning to B25, the “ELISA luminescence signal at 10 nmol/L peptide, relative to SEQ ID NO: 47 (=1)” value is ≥ 0.7 ratio.

Take B26: the “ELISA luminescence signal at 10 nmol/L peptide, relative to SEQ ID NO: 47 (=1)” value was ≥ 0.7 ratio.

B27: the “ELISA luminescence signal at 10 nmol/L peptide, relative to SEQ ID NO: 47 (=1)” value is ≥ 0.7 ratio.
